# Assay results published in article PMC10104862.
# Target: Flag-TRF2 (Telomeric repeat-binding factor 2), wild type (not stated (human or mouse cDNA cloned)) (UniProt Q15554)
# Assay: co-IP; 293T or U2OS cells co-transfected with epitope-tagged cDNAs, lysed 48 h later in BCO 300 buffer (20 mM HEPES pH 7.5, 10% glycerol, 1 mM EDTA, 0.1% NP-40); Flag M2 affinity gel; SDS-PAGE and blot
# UniProt Q15554, sequence (Q15554 whole entry): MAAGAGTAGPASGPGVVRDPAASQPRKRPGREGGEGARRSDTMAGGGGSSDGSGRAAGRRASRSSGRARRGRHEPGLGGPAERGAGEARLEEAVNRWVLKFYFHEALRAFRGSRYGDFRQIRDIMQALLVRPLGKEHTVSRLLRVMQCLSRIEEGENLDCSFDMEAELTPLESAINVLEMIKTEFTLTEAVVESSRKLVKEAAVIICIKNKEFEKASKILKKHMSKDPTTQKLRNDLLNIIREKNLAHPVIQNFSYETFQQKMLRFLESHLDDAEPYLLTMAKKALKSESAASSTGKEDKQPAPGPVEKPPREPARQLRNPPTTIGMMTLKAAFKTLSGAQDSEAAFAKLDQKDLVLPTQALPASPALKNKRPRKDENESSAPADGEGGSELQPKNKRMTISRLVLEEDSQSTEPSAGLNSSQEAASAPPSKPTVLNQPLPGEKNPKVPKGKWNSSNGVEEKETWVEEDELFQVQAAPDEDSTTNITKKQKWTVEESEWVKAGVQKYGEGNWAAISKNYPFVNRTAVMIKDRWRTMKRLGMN
substance,measurement,value
"ADAR1p110, wild type (expressed construct) (natural protein)",fold binding relative to TRF2^ΔB,3 fold
